# Test: confocal fluorescence microscopy, ER and mitochondria markers
# Settings: glycan lost; control: Psd1-EGFP
protein,measurement,value
Psd1: Psd1(N34Q)-EGFP (protein) parent chain: MSIMPVKNALAQGRTLLMGRMPAVKFSTRMQLRNRTAVLWNRKFSTRLFVQQRRSSGEIVDRAKAAAANSGRKQVSMKWVVLTSFTIVLGTILLVSRNDSTEEDATEGKKGRRTRKIKIFNNNWLFFCYSTLPLNAMSRLWGQVNSLTLPIWVRPWGYRLYSFLFGVNLDEMEDPDLTHYANLSEFFYRNIKPGTRPVAQGEDVIASPSDGKILQVGIINSETGEIEQVKGMTYSIKEFLGTHSHPLMSKSASSLDLTSDEEKHREFARVNRIQLAGSEDTEQPLLNFKNEGDQSVREFKPSVSKNIHLLSQLSLNYFSNGFSCSEPHDTELFFAVIYLAPGDYHHFHSPVDWVCKVRRHFPGDLFSVAPYFQRNFPNLFVLNERVALLGSWKYGFFSMTPVGATNVGSIKLNFDQEFVTNSKSDKHLEPHTCYQAVYENASKILGGMPLVKGEEMGGFELGSTVVLCFEAPTEFKFDVRVGDKVKMGQKLGIIGKNDLK,localisation_or_trafficking,no change

# Reference: article PMC5975648
